B1: His6-EGFP-KRIT1 (WT) FERM domain (417–736) (domain or fragment, human, UniProt O00522 417-736, looked up)
chain: KPYEKVRIYRMDGSYRSVELKHGNNTTVQQIMEGMRLSQETQQYFTIWICSENLSLQLKPYHKPLQHVRDWPEILAELTNLDPQRETPQLFLRRDVRLPLEVEKQIEDPLAILILFDEARYNLLKGFYTAPDAKLITLASLLLQIVYGNYESKKHKQGFLNEENLKSIVPVTKLKSKAPHWTNRILHEYKNLSTSEGVSKEMHHLQRMFLQNCWEIPTYGAAFFTGQIFTKASPSNHKVIPVYVGVNIKGLHLLNMETKALLISLKYGCFMWQLGDTDTCFQIHSMENKMSFIVHTKQAGLVVKLLMKLNGQLMPTERNS
B2: biotinylated HEG1 cytoplasmic tail (a.a. 1274–1381) (domain or fragment, UniProt Q9ULI3 1274-1381, looked up)
chain: RKNKNDISKLIFKSGDFQMSPYAEYPKNPRSQEWGREAIEMHENGSTKNLLQMTDVYYSPTSVRNPELERNGLYPAYTGLPGSRHSCIFPGQYNPSFISDESRRRDYF
modifications: biotin on the in vivo biotinylation peptide tag

The target in test [1] is B2. The experiment in a line: flow cytometry on beads. A general note: In flow cytometry, cells or beads pass a laser one at a time.
Test [2] addresses B1. The experiment in a line: flow cytometry on beads.

In general, EC50 refers to the concentration needed to bring the measured effect to its halfway point. A higher EC50 goes with weaker potency. In turn, B1 yielded an EC50 in test [1] of 32.4 nM.
As for B2, in test [2], the binding result is “binds”.

Values taken from article PMC8103725 (FASEB BioAdvances, 2021).
